Experimental data reported in patent publication US20220153796A1.

target: HLA-A*24 (human); test: UV peptide exchange ELISA

TWFPKTPMLF and RYLADLPTL cannot be ordered by peptide exchange yield: greater than 75% for the first, greater than 75% for the second.

YYSPLRDLL and LYPEGLRLL cannot be ordered by peptide exchange yield: greater than 75% for the first, greater than 75% for the second.

RFLPSPVVI and TYCQNIKEF cannot be ordered by peptide exchange yield: greater than 75% for the first, greater than 75% for the second.

VYSDLHAFYY and KYVKDFHKF cannot be ordered by peptide exchange yield: greater than 75% for the first, greater than 75% for the second.

VYVGAVNRI and KFLGPAEHLTF cannot be ordered by peptide exchange yield: greater than 75% for the first, greater than 75% for the second.

NYIVPDKQIF and VFQEKHHVI fall in the same range of peptide exchange yield: 50 to 75% for the first, 50 to 75% for the second.

Compared with TYSKKHFRI, IYHSHHPTL is lower in peptide exchange yield: greater than 75% for the first, 50 to 75% for the second.

First: RYKQDVERF
Second: KYVKVFDKF
The peptide exchange yield of the first is lower: 50 to 75% for the first, greater than 75% for the second.

MYINEVERL and VYNDHSIYVW cannot be ordered by peptide exchange yield: greater than 75% for the first, greater than 75% for the second.

With RWLPQKNAAQF the peptide exchange yield was 50 to 75%.

target: HLA-B*44 (human); test: UV peptide exchange ELISA

AEMLERVIKNY and MEVDPIGHVYIF cannot be ordered by peptide exchange yield: greater than 75% for the first, greater than 75% for the second.

Compared with AEMLESVIKNY, KEVDPAGHSY is lower in peptide exchange yield: 50 to 75% for the first, 20 to 50% for the second.

SEFMQVIF and TDSIHAWTF fall in the same range of peptide exchange yield: 50 to 75% for the first, 50 to 75% for the second.

Compared with QEQDVDLVQKY, QEMQHFLGL is higher in peptide exchange yield: 20 to 50% for the first, 50 to 75% for the second.

Compared with YEIEARNQVF, FEYDFLLQRI is higher in peptide exchange yield: 50 to 75% for the first, greater than 75% for the second.

NEHPSNNW and KEGDLGGKQW fall in the same range of peptide exchange yield: 50 to 75% for the first, 50 to 75% for the second.

Compared with EDAQGHIW, MEVPVIKI is lower in peptide exchange yield: 50 to 75% for the first, 20 to 50% for the second.

Compared with AETLSTIQI, AEDEPAAAHL is lower in peptide exchange yield: 50 to 75% for the first, 20 to 50% for the second.

KELEATKQY and ASSSGPMRWW fall in the same range of peptide exchange yield: 20 to 50% for the first, 20 to 50% for the second.

First: TENRYCVQL
Second: SEGSEPALLHSW
The peptide exchange yield of the first is higher: greater than 75% for the first, 50 to 75% for the second.

SEPALLHSW and EEIEGKGSFTYF fall in the same range of peptide exchange yield: 50 to 75% for the first, 50 to 75% for the second.

First: HEFSSPSHL
Second: TEFTTVLY
The peptide exchange yield of the first is higher: 50 to 75% for the first, 20 to 50% for the second.

Compared with EEATGQFHVY, IEFIHPQAF is higher in peptide exchange yield: 50 to 75% for the first, greater than 75% for the second.

Compared with VEAPGPVHVYW, ALNPYQYQY is lower in peptide exchange yield: greater than 75% for the first, 50 to 75% for the second.

AEIQGNINHV and AEQDMRELTY fall in the same range of peptide exchange yield: 50 to 75% for the first, 50 to 75% for the second.

GECDVFKEIL and EEVNYINTF fall in the same range of peptide exchange yield: 50 to 75% for the first, 50 to 75% for the second.

NEVLTYIKF and GEIIMQNNW cannot be ordered by peptide exchange yield: greater than 75% for the first, greater than 75% for the second.

First: TEDPTILRI
Second: SDMVRFHLF
The peptide exchange yield of the first is higher: 50 to 75% for the first, 20 to 50% for the second.

EEGRVYLF and RELENCFQIQ fall in the same range of peptide exchange yield: 50 to 75% for the first, 50 to 75% for the second.

KEADIHFLI and DELFSIALY cannot be ordered by peptide exchange yield: greater than 75% for the first, greater than 75% for the second.

First: AEVPTGVII
Second: SENLFFASF
The peptide exchange yield of the first is lower: 50 to 75% for the first, greater than 75% for the second.

SEKGVIQVY and AELDKLTSV fall in the same range of peptide exchange yield: 50 to 75% for the first, 50 to 75% for the second.

First: AETPIQNVI
Second: SEMNVNMKY
The peptide exchange yield of the first is lower: 50 to 75% for the first, greater than 75% for the second.

First: AENLFRAF
Second: GEVHPSEMI
The peptide exchange yield of the first is lower: 20 to 50% for the first, 50 to 75% for the second.

Compared with GEFPVRVQV, EEIERFFKL is higher in peptide exchange yield: 20 to 50% for the first, 50 to 75% for the second.

YEDLSQKY and GELALKKKI fall in the same range of peptide exchange yield: 20 to 50% for the first, 20 to 50% for the second.

First: TEGIIMKDF
Second: MEMQKSPVF
The peptide exchange yield of the first is lower: 20 to 50% for the first, 50 to 75% for the second.

First: DEVNFLVY
Second: AEEEIMKKI
The peptide exchange yield of the first is lower: 10 to 20% for the first, 20 to 50% for the second.
